Measured values as given in patent CN110974958A (BEIJING DONGFANG BIOTECH CO LTD, dated 2020).
Positions count from the first letter of the chain named.

B1: BH2-B11 全抗体 (full antibody, human IgG1/kappa) (antibody, V domains shown)
VH: EVQLVESGGGLVQPGGSLRLSCAASGLTWSDSYKHWVRQAPGKGLEWVHWNSTYGGSTYYADSVKGRFTISADTSKNTAYLQMNSLRAEDTAVYYCARRHFASTWDYWGQGTLVTVSS
VL: DIQMTQSPSSLSASVGDRVTITCRASQNIHNSLAWYQQKPGKAPKLLIYGASSLESGVPSRFSGSGSGTDFTLTISSLQPEDFATYYCQQERRVPWTFGQGTKVEIKR
notes: Full antibody expressed in HEK293E from vector pTSE
B2: AH10-E3 全抗体 (full antibody, human IgG1/kappa) (antibody, V domains shown)
VH: EVQLVESGGGLVQPGGSLRLSCAASGWTLSDSLQHWVRQAPGKGLEWVGFQSAYGGSTYYADSVKGRFTISADTSKNTAYLQMNSLRAEDTAVYYCARRHYYTAWDYWGQGTLVTVSS
VL: B1 VL with N28S, S32Y, G50S, S53N, E55P, E91G, R92L, R93H, V94T, W96P
notes: as for B1
B3: AC9-E3 全抗体 (full antibody, human IgG1/kappa) (antibody, V domains shown)
VH: B1 VH with L27C, Y33W, K34D, H49D, W50Y, N51E, F101W, A102N, S103A, W105F
VL: B1 VL with N28S, S32Y, G50S, S53N, E55P, E91G, R92L, R93H, V94T, W96P
notes: as for B1
B4: AC9-B11 全抗体 (full antibody, human IgG1/kappa) (antibody, V domains shown)
VH: B1 VH with L27C, Y33W, K34D, H49D, W50Y, N51E, F101W, A102N, S103A, W105F
VL: B1 VL
notes: as for B1
B5: BH2-E3 全抗体 (full antibody, human IgG1/kappa) (antibody, V domains shown)
VH: B1 VH
VL: B1 VL with N28S, S32Y, G50S, S53N, E55P, E91G, R92L, R93H, V94T, W96P
notes: as for B1
B6: AH10-B11 全抗体 (full antibody, human IgG1/kappa) (antibody, V domains shown)
VH: B2 VH
VL: B1 VL
notes: Full antibody expressed in HEK293E from vector pTSE; also called AH10-811

target: T1, PD-L1-Fc (UniProt Q9NZQ7 19-238, limits assumed); assay: competition ELISA, PD-L1-Fc coated 200 ng/well, competitor PD-1-His 5 ug/ml, anti-His-HRP
T1 construct: not shown: Fc part
T1 sequence (Q9NZQ7 19-238 limits assumed): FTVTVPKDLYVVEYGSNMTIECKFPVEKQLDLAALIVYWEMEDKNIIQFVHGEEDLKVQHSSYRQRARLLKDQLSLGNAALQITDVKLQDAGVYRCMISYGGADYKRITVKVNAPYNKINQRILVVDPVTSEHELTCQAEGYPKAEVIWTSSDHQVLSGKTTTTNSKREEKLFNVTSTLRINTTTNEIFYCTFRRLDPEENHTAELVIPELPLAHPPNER

| IC50 [µg/mL] | Binder |
| --- | --- |
| 0.0612 | B1 |
| 0.136 | B2 |
| 0.138 | B3 |
| 0.082 | B4 |
| 0.0927 | B5 |
| 0.108 | B6 |

target: T2, PD-L1 (UniProt Q9NZQ7 19-238, limits assumed); assay: ELISA, PD-L1 coated 100 ng/well, full antibody titrated from 1 ug/ml, Anti-Human Fc-HRP
T2 construct: Coated antigen of experiments 1 and 3; also called 程序性死亡分子1配体; CD274
T2 sequence (Q9NZQ7 19-238 limits assumed): as above

| EC50 [ng/mL] | Binder |
| --- | --- |
| 0.535 | B1 |
| 1.91 | B2 |
| 2.17 | B3 |
| 0.574 | B4 |
| 1.23 | B5 |
| 1.43 | B6 |

target: T2, PD-L1; assay: cell-based or functional assay

| EC50(ng/ml), 混合淋巴细胞反应(MLR), CD4+ T细胞增殖 (cck8) [ng/mL] | Binder |
| --- | --- |
| 6.73 | B1 |
| 11.4 | B2 |
| 11.9 | B3 |
| 7.58 | B4 |
| 7.71 | B5 |
| 9.88 | B6 |
